{
  "source": "patent US5824869",
  "key": {"[1]": {"target": "Rs-AFP1 (Raphanus sativus antifungal protein 1) (Raphanus sativus)"}, "[2]": {"target": "Rs-AFP2 (Raphanus sativus antifungal protein 2) (Raphanus sativus)"}},
  "data": [
    {"substance": "chymotrypsin (enzyme)", "values": [
      {"measurement": "antifungal activity on Fusarium culmorum after digestion with the protease", "setting": "[1]", "result": 10, "unit": "fold"},
      {"measurement": "antifungal activity on Fusarium culmorum after digestion with the protease", "setting": "[2]", "result": 10, "unit": "fold"}
    ]},
    {"substance": "pronase E (enzyme)", "values": [
      {"measurement": "antifungal activity on Fusarium culmorum after digestion with the protease", "setting": "[1]", "result": 10, "unit": "fold"},
      {"measurement": "antifungal activity on Fusarium culmorum after digestion with the protease", "setting": "[2]", "result": 10, "unit": "fold"}
    ]},
    {"substance": "trypsin (enzyme)", "values": [
      {"measurement": "antifungal activity on Fusarium culmorum after digestion with the protease", "setting": "[1]", "result": 10, "unit": "fold"},
      {"measurement": "antifungal activity on Fusarium culmorum after digestion with the protease", "setting": "[2]", "result": 10, "unit": "fold"}
    ]},
    {"substance": "proteinase K (from UniProt P06873) (enzyme)", "values": [
      {"measurement": "antifungal activity on Fusarium culmorum after digestion with the protease", "setting": "[1]", "result": 10, "unit": "fold"},
      {"measurement": "antifungal activity on Fusarium culmorum after digestion with the protease", "setting": "[2]", "result": 10, "unit": "fold"}
    ]}
  ]
}
